These results are taken from US20230235058A1 (OXFORD UNIVERSITY INNOVATION, published 2023).

Assay [1] concerns the target T1, full length human BTLA expressed on cells (human, UniProt Q7Z6A9 31-289).
T1 construct: also called human BTLA expressing cells; human BTLA transfected Jurkat T cell line
Briefly: flow cytometry, BTLA Jurkat cells. For orientation: A flow cytometer gives signals particle by particle.
Procedure: (§1) A lentiviral transfection system was used to express full length human or cynomolgus BTLA in a Jurkat T cell line. 1×10⁵ cells per well were plated in 96 well U-bottom plates. […] Secondary antibody was incubated for 30 minutes on ice, then cells were washed and resuspended in FACS buffer for analysis on a flow cytometer. The geometric mean fluorescent intensity of secondary antibody was plotted for each concentration and the EC50 for receptor binding calculated by non-linear curve fitting using GraphPad Prism software.
(§2) The ability of the BTLA agonist antibodies of the present invention to bind to human or cynomolgus BTLA expressed on the cell surface was assessed by flow cytometry. A lentiviral transfection system was used to express full length human or cynomolgus BTLA in a Jurkat T cell line. 1×10⁵ cells per well were plated in 96 well U-bottom plates.

The target of assay [2] is T2, full length cynomolgus BTLA expressed on Jurkat cells (cynomolgus monkey, UniProt Q7Z6A9 31-289 (human entry)).
T2 construct: also called cynomolgus BTLA expressing cells
T2 chain: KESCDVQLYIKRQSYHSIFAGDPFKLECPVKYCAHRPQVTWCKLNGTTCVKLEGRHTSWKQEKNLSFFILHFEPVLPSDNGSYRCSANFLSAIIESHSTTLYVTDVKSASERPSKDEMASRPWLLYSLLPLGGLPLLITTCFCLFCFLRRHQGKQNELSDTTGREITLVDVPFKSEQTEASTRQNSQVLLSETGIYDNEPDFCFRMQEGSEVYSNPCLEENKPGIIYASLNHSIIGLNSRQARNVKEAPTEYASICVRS
Briefly: flow cytometry, BTLA Jurkat cells.
Procedure: as §1, §2

Assay [3] addresses T3, monomeric soluble human BTLA extracellular domain (BTLA K31-R151) (human, UniProt Q7Z6A9 31-151).
T3 construct: also called hBTLA; monomeric BTLA
Briefly: SPR, monomeric BTLA. For orientation: In SPR one partner is held on a chip, and binding of the other changes the refractive index at the surface.

Assay [4] has as its target T4, human FcγR2A 131R (human, UniProt P12318 34-217).
T4 construct: extracellular domain
T4 sequence (looked up): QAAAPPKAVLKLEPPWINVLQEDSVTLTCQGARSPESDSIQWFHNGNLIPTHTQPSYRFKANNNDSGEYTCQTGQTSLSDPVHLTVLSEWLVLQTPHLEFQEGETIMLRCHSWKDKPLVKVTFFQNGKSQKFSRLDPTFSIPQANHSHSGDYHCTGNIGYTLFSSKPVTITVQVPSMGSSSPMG
The experiment in a line: SPR 37C, steady state.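 Also: fc variants captured on chip-bound human BTLA ectodomain, recombinant FcγR ectodomains injected as analyte at varied concentrations, double-referenced equilibrium binding fitted to Langmuir model.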
Procedure: (§3) For the low affinity FcγRs (FcγR2A, FcγR2B, FcγR3A and FcγR3B) the interactions were assessed by surface plasmon resonance with the recombinantly expressed FcRs (extracellular domains only) as analyte. Briefly, recombinant human BTLA extracellular domain (BTLA^K31-R151) was covalently immobilised to both flow cells of all channels of a CMS Series S sensor chip using the GE Healthcare Amine coupling kit. The 2.8.6 Fc variant to be assessed was then captured (approx. 500-1000 response units) in flow cell 2 of each channel. Steady state affinity analysis was then performed by injecting varying concentrations of FcR in multiple cycles and measuring equilibrium binding. Double referencing was used (subtracting the signal in the reference Fc1 and also subtracting the signal from a blank zero concentration injection). KDs were calculated from the Langmuir curves (plotting equilibrium binding against analyte concentration to determine the concentration required for half maximal binding).

Assay [5] has as its target T5, human FcγR2B (human, UniProt P31994 43-217).
T5 construct: extracellular domain; also called hFcγR2B; CD32B
T5 sequence (looked up): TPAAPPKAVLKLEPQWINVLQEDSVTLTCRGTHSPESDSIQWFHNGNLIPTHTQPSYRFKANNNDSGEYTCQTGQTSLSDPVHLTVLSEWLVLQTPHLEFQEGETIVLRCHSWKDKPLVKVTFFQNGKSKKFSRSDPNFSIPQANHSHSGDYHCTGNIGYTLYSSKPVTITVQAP
The experiment in a line: SPR 37C, steady state.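 Also: fc variants captured on chip-bound human BTLA ectodomain, recombinant FcγR ectodomains injected as analyte at varied concentrations, double-referenced equilibrium binding fitted to Langmuir model.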
Procedure: as §3

The target in assay [6] is T6, human FcγR3B (human, UniProt O75015 17-200, limits assumed).
T6 construct: extracellular domain; also called CD16B
T6 sequence (O75015 17-200 limits assumed): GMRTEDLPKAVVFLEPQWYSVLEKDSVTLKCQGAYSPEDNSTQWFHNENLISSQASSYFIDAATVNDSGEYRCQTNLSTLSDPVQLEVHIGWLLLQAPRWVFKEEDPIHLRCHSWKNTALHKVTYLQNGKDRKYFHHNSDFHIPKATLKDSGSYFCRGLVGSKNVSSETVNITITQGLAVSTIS
Briefly: SPR 37C, steady state.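 Also: fc variants captured on chip-bound human BTLA ectodomain, recombinant FcγR ectodomains injected as analyte at varied concentrations, double-referenced equilibrium binding fitted to Langmuir model.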
Procedure: as §3

Assay [7] addresses T7, human FcγR3A 158V (human, UniProt P08637 17-208).
T7 construct: extracellular domain
The experiment in a line: SPR 37C, steady state.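 Also: fc variants captured on chip-bound human BTLA ectodomain, recombinant FcγR ectodomains injected as analyte at varied concentrations, double-referenced equilibrium binding fitted to Langmuir model.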
Procedure: as §3

In assay [8] the target is T8, human FcγR2A 131H (human, UniProt P12318 34-217).
T8 construct: extracellular domain
T8 sequence (looked up): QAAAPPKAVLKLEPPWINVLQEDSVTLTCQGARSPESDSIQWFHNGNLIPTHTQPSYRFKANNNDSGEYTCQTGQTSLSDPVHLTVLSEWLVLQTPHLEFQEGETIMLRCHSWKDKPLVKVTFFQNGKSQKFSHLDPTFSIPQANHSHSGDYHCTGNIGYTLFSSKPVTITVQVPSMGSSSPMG
Briefly: SPR 37C, steady state.
Procedure: as §3

Assay [9] has as its target T9, human FcγR3A 158F (human, UniProt P08637 17-208).
T9 construct: extracellular domain
The experiment in a line: SPR 37C, steady state.
Procedure: as §3

For assay [10], the target named is T1, full length human BTLA expressed on …. The experiment in a line: cell-based or functional assay.
For assay [11], the target named is T3, monomeric soluble human BTLA …. The experiment in a line: SPR Biacore 8K 37C, single cycle kinetics.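 Also: antibody captured on sensor chip, soluble BTLA extracellular domain flowed over at several concentrations in HBS-EP pH 7.4, rates fitted after subtracting isotype-control reference channel and blank.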
Procedure: (§4) The binding affinity and kinetics of humanised BTLA agonist antibodies to human or cynomolgus BTLA were determined by surface plasmon resonance using the Biacore 8K (GE Healthcare). […] Anti-BTLA antibody was then captured onto the biosensor surface and a negative control antibody (human IgG1k isotype control; Sino Biological cat #HG1K) captured in the reference channel. Various concentrations of monomeric soluble human BTLA extracellular domain (BTLA^K31-R151, produced recombinantly in house) or soluble cynomolgus macaque BTLA extracellular domain (BTLA^K31-R151, produced recombinantly in house) were then injected over the immobilized antibodies in the buffer HBS-EP (GE Healthcare, cat #BR100669), pH 7.4 (HBS-P) at 37° C., in a single cycle kinetics analysis.
In assay [12] the target is T10, soluble cynomolgus macaque BTLA extracellular domain (BTLA K31-R151) (cynomolgus macaque).
T10 construct: also called cynomolgus BTLA; cyno BTLA
T10 chain: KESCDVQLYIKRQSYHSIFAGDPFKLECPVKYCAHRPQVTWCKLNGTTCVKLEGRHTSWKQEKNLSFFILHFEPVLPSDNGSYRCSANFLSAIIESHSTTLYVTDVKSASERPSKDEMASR
Briefly: SPR Biacore 8K 37C, single cycle kinetics.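 Also: antibody captured on sensor chip, soluble BTLA extracellular domain flowed over at several concentrations in HBS-EP pH 7.4, rates fitted after subtracting isotype-control reference channel and blank.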
Procedure: as §4

For assay [13], the target named is T11, human FcRn (human, UniProt P55899 24-297; P61769 21-119, limits assumed, biotinylated).
T11 construct: bought; also called FcRn pH6
T11 sequence (P55899 24-297 limits assumed, chain 1 of 2): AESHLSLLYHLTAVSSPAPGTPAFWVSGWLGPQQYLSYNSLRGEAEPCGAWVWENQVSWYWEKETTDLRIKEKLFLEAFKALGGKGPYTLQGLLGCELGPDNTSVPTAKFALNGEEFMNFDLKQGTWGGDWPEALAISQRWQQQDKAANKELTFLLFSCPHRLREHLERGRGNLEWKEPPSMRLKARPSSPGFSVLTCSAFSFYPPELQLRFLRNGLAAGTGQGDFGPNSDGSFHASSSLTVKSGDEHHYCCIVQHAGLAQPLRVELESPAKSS
T11 sequence (P61769 21-119 limits assumed, chain 2 of 2): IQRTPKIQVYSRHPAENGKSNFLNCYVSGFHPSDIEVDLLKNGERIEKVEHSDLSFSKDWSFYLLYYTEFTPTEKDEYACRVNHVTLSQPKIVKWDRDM
Briefly: SPR, pH6.0.
Procedure: For the high affinity FcR interactions (FcγR1A, and also FcRn assessed at pH6.0) the binding was assessed in a kinetic analysis with antibody as analyte. […] Reference flow cell 1 was left empty in all channels. Purified antibody was then injected at a single concentration and on/off rates calculated by curve fitting on BiaEvaluation software. […] IgG Fc has two binding sites for FcRn so this assessment performed with FcRn immobilised at high density provides an avidity estimate for the interaction rather than a true KD.

The target in assay [14] is T12, human FcγR1A (human, UniProt P12314 16-288, biotinylated).
T12 construct: bought; also called CD64A
T12 sequence (P12314 16-288): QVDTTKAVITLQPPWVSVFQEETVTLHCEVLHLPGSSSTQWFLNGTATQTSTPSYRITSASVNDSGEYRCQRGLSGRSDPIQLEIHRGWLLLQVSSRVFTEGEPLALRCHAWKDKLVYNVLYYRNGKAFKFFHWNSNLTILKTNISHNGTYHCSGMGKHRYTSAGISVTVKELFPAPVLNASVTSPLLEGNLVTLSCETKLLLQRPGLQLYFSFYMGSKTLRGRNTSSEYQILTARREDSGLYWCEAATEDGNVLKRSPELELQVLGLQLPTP
The experiment in a line: SPR 37C, kinetic.
Procedure: For the high affinity FcR interactions (FcγR1A, and also FcRn assessed at pH6.0) the binding was assessed in a kinetic analysis with antibody as analyte. […] Reference flow cell 1 was left empty in all channels. Purified antibody was then injected at a single concentration and on/off rates calculated by curve fitting on BiaEvaluation software.

T9 sequence (P08637 17-208): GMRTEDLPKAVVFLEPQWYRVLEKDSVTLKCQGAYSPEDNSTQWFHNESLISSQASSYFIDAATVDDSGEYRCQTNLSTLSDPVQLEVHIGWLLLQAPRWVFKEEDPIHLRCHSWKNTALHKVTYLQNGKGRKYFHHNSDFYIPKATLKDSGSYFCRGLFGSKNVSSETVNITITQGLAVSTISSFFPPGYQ
T7 sequence (P08637 17-208 F176V): as the sequence (P08637 17-208) above, with F160V counted along it

B1: Humanised 2.8.6 (hIgG1 P238D) (antibody)
heavy: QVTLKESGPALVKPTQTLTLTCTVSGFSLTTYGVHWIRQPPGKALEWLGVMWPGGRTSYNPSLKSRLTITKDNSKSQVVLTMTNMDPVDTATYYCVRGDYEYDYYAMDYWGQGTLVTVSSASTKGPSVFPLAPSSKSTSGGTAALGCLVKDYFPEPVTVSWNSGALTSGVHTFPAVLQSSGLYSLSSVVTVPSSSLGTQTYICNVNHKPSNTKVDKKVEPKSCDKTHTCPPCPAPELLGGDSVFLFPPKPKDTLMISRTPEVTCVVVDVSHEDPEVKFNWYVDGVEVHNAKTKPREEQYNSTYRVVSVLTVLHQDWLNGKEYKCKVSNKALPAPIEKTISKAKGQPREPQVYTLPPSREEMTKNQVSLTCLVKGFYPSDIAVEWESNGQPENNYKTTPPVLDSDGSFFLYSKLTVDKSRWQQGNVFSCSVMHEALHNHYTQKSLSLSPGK
light: EIVLTQSPATLSLSPGERATLSCRASSSVSYMHWYQQKPGQAPRPLIYATSNRATGIPARFSGSGSGTDYTLTISSLEPEDFAVYYCHQWSSNPYTFGQGTKLEIKRTVAAPSVFIFPPSDEQLKSGTASVVCLLNNFYPREAKVQWKVDNALQSGNSQESVTEQDSKDSTYSLSSTLTLSKADYEKHKVYACEVTHQGLSSPVTKSFNRGEC
notes: copies: 2 + 2
As a reminder, the EC50 is the concentration giving half of the maximal effect. A higher EC50 goes with a less potent agent. A word on the Kd: it is the concentration at which binding is half-saturated. Low readings indicate higher affinity, high ones lower affinity. One may read the koff as a measure of how fast the partners let go of each other. High values mean fast dissociation, low ones slow dissociation. In general, kon refers to the second-order rate constant of association. The low end stands for slower complex formation, the high end for faster complex formation. For the molecule B1, the results for the half-maximal effective concentration (EC50) in assay [1] and in [2] were 0.066 nM and 0.000854 µM, respectively. Moreover, the Kd in assay [3] was found to be 0.00073 µM; in [4], 28.9 µM; in assay [5] it was 4.78 µM; in assay [6] it was 1580 µM; in [7], 7010 µM; in [8] it was 76.5 µM. For the same molecule, the Kd in assay [9] came to 2480 µM; in assay [11] it was 0.00233 µM; in assay [12], 0.147 µM; in assay [14] it was 0.465 µM. Further, the “inhibition of NFkB signal, IC50” value in [10] turned out to be 0.059 nM. Moreover, the “maximal inhibition of NFkB signal” value in [10] worked out at 42%. Also, the off-rate constant (koff) was determined as 0.00157 s⁻¹ in assay [11] and 0.025 s⁻¹ in assay [12]. Also, the kon in assay [11] amounted to 673000 M⁻¹ s⁻¹; in [12], 170000 M⁻¹ s⁻¹. Further, the “avidity (FcRn pH6)” value in assay [13] amounted to 1.43 nM.

B2: humanised 2.8.6 hIgG1 delta ac (antibody)
chain 1: QVTLKESGPALVKPTQTLTLTCTVSGFSLTTYGVHWIRQPPGKALEWLGVMWPGGRTSYNPSLKSRLTITKDNSKSQVVLTMTNMDPVDTATYYCVRGDYEYDYYAMDYWGQGTLVTVSSASTKGPSVFPLAPSSKSTSGGTAALGCLVKDYFPEPVTVSWNSGALTSGVHTFPAVLQSSGLYSLSSVVTVPSSSLGTQTYICNVNHKPSNTKVDKKVEPKSCDKTHTCPPCPAPPVAGGPSVFLFPPKPKDTLMISRTPEVTCVVVDVSHEDPEVKFNWYVDGVEVHNAKTKPREEQYNSTYRVVSVLTVLHQDWLNGKEYKCKVSNKGLPSSIEKTISKAKGQPREPQVYTLPPSRDELTKNQVSLTCLVKGFYPSDIAVEWESNGQPENNYKTTPPVLDSDGSFFLYSKLTVDKSRWQQGNVFSCSVMHEALHNHYTQKSLSLSP
chain 2: EIVLTQSPATLSLSPGERATLSCRASSSVSYMHWYQQKPGQAPRPLIYATSNRATGIPARFSGSGSGTDYTLTISSLEPEDFAVYYCHQWSSNPYTFGQGTKLEIKRTVAAPSVFIFPPSDEQLKSGTASVVCLLNNFYPREAKVQWKVDNALQSGNSQESVTEQDSKDSTYSLSSTLTLSKADYEKHKVYACEVTHQGLSSPVTKSFNRGEC
On to B2, for which the dissociation constant Kd in assay [4] was determined as 79.3 µM; in [5], 131 µM; in assay [7], 96.4 µM; in assay [8], 82.2 µM; in assay [9] it was 344 µM; in assay [14], 2.85 µM. Besides, in assay [13], the “avidity (FcRn pH6)” value came out at 11.9 nM.

B3: humanised 2.8.6 hIgG1 D265A G236D S267E A330R (antibody)
heavy: QVTLKESGPALVKPTQTLTLTCTVSGFSLTTYGVHWIRQPPGKALEWLGVMWPGGRTSYNPSLKSRLTITKDNSKSQVVLTMTNMDPVDTATYYCVRGDYEYDYYAMDYWGQGTLVTVSSASTKGPSVFPLAPSSKSTSGGTAALGCLVKDYFPEPVTVSWNSGALTSGVHTFPAVLQSSGLYSLSSVVTVPSSSLGTQTYICNVNHKPSNTKVDKKVEPKSCDKTHTCPPCPAPELLDGPSVFLFPPKPKDTLMISRTPEVTCVVVAVEHEDPEVKFNWYVDGVEVHNAKTKPREEQYNSTYRVVSVLTVLHQDWLNGKEYKCKVSNKALPRPIEKTISKAKGQPREPQVYTLPPSREEMTKNQVSLTCLVKGFYPSDIAVEWESNGQPENNYKTTPPVLDSDGSFFLYSKLTVDKSRWQQGNVFSCSVMHEALHNHYTQKSLSLSPGK
light: EIVLTQSPATLSLSPGERATLSCRASSSVSYMHWYQQKPGQAPRPLIYATSNRATGIPARFSGSGSGTDYTLTISSLEPEDFAVYYCHQWSSNPYTFGQGTKLEIKRTVAAPSVFIFPPSDEQLKSGTASVVCLLNNFYPREAKVQWKVDNALQSGNSQESVTEQDSKDSTYSLSSTLTLSKADYEKHKVYACEVTHQGLSSPVTKSFNRGEC
notes: Fc variant with the variable domains of humanised 2.8.6; copies: 2 + 2
Take B3: the figures for the Kd in [4] and in assay [5] were 54.4 µM and 104 µM, respectively. Also, the binding result in [6], in [7], in [8], in assay [9] and in assay [14] was “no binding” each time.

B4: Engineered humanised 3E8 (Variant B) (antibody, V domains shown)
VH: QVQLVQSGAELKKPGASVKVSCKASGYTFTSYAIRWVRQATGQGLEWMGEIYPRSGNTYYAQKFQGRATLTADKSISTAYMELSSLRSEDTAVYFCARSGGASYTMDYWGQGTTVTVSS
VL: ENVLTQSPATLSLSLGERATLSCSASSSVSSSYLHWYQQKPDQSPRPLIHRTSNLASGIPSRFSGSGSGTDYTLTISSLEAEDFAVYYCQQWSGYPFTFGSGTKLEIKR
In turn, B4 returned an EC50 in [1] of 0.177 nM. Further, the EC50 in assay [2] came out at 0.0156 µM. In [10], the “inhibition of NFkB signal, IC50” value amounted to 0.065 nM and the “maximal inhibition of NFkB signal” value amounted to 54%. In assay [11], this molecule registered a dissociation constant (Kd) of 0.141 µM, a koff of 0.122 s⁻¹ and a kon of 865000 M⁻¹ s⁻¹. Besides, in assay [12], the dissociation constant Kd amounted to 1.52 µM, the off-rate (koff) was found to be 0.431 s⁻¹ and the kon amounted to 287000 M⁻¹ s⁻¹.

B5: hHVEM-mFc fusion protein (human HVEM extracellular domain fused to mouse IgG1 Fc) (Fc fusion)
chain: LPSCKEDEYPVGSECCPKCSPGYRVKEACGELTGTVCEPCPPGTYIAHLNGLSKCLQCQMCDPAMGLRASRNCSRTENAVCGCSPGHFCIVQDGDHCAACRAYATSSPGQRVQKGGTESQDTLCQNCPPGTFSPNGTLEECQHQTKCSWLVTKAGAGTSSSHLVPRGSGSKPSISTVPEVSSVFIFPPKPKDVLTITLTPKVTCVVVDISKDDPEVQFSWFVDDVEVHTAQTQPREEQFNSTFRSVSELPIMHQDWLNGKEFKCRVNSAAFPAPIEKTISKTKGRPKAPQVYTIPPPKEQMAKDKVSLTCMITDFFPEDITVEWQWNGQPAENYKNTQPIMDTDGSYFVYSKLNVQKSNWEAGNTFTCSVLHEGLHNHHTEKSLSHSPGKHHHHHH
Consider B5, for which, in assay [10], the “inhibition of NFkB signal, IC50” value amounted to 9.6 nM and the “maximal inhibition of NFkB signal” value stood at 27%.

B6: Engineered humanised 6.2 (Variant C) (antibody, V domains shown)
VH: EVQLVESGGGLVKPGGSLRLSCAASGFTLSSYGMSWVRQAPGKGLEWVASIRSDGQTYYPDSVKGRFTISRDNAKNTLYLQMSSLRAEDTAVYYCTRGGYYGSSPYYWGQGTTVTVSS
VL: DIVMTQSPLSLPVTPGEPASISCKSSQSLLYSSNQKNYLAWYQQKPGQSPKLLIYWASTRESGVPDRFSGSGSGTDFTLKISRVEAEDVGVYYCQQYYNYLTFGGGTKVEIKR
In the case of B6, the half-maximal effective concentration (EC50) in assay [1] was found to be 0.062 nM. In [2], this molecule registered a half-maximal effective concentration (EC50) of 0.000148 µM. For the same molecule, in assay [10], the “inhibition of NFkB signal, IC50” value came to 0.028 nM and the “maximal inhibition of NFkB signal” value amounted to 47%. In addition, in assay [11], binding was put at a Kd of 0.00125 µM, the koff came out at 0.00133 s⁻¹ and the association rate constant (kon) was found to be 1.06e+06 M⁻¹ s⁻¹. In addition, in assay [12], the dissociation constant (Kd) stood at 0.0154 µM, the dissociation rate constant (koff) was 0.00352 s⁻¹ and the kon was 229000 M⁻¹ s⁻¹.
